Data taken from a protein production outcome set (Wang et al. 2014).

Assay: label from the status in PepcDB records

Sequence	protein production
MADQPESPSRPRGGLRRLLPWSGADTARTATTVHTVINGERGGQGLAAHQLVPAKAKSGAHDPAAATALLIRLFSHAAHPEALLLAFAEGITSLHGELGDMGVRLSAAYAAGDWPGYGRALRQLIDKYIRTIDIGDSLAEGRTEAEQLRDLLRHALGNALATLLQRSPELAEEAQTLASALRHWRPGHELLTLEQRLRELSHQIGLRAEDASEQQNLLLGLFDLLLENVGELLDDRSWLQGQISVVRQLISGPLDVSSIEQARGTLREVIYKQGLLKQGIAESKTAMREMMVSFVDRLDGMATSTGEYHDRVAGYSQAIGEARGIPDLNRLLQDLLQDTAGVQAQALAARDELLSARRQVEDCEQRIASLEQELKDVAGLVREDQLTGALNRRGFEELFQREAVRTQRSGQPLCVAMLDLDDFRRLNETHGHAGGDAALRHTVDVAKAVLRTTDAIARFGGEEFVLLLPDSTIFEASAAVIRLQRALSQRSLLHDDVRVFISFSAGVALRGTDETQDDVIRRADRAMYDAKSAGKNRVINAD	failed
MADSESKIYHERQRLQFCLLHCLNNLFQDKDAFTKESLNSIAEKLETNDPNKETWTPLSFVLKPHHNTITGNYDVNVMITALEGKGKSVVWHDKRIGASSIDLDDADTLMGIVLNVPVKRYGGLWRSRHWVVVRKINGVWYNLDSDLVVPQLFRDDDEVRGFLDQNLSLDVIGLIWNLPYNANQLPLASNYRVVITHWSDLNGMFSHVTNYPLDFDVYPQVSSKVSAIYKATGTKRFNANTRPVTPGKQSSVKGPYYKNPGCTTSCGLRLPRKTECTAARLIKDLSCKFVMGLRLVVMRKKKKKRSPPLKKASSSGISQPSVISVVNDNNHRSAAIEDCIQFINSSSSFTRSNSTCGSKS	failed
MAEAHVTKVGIVGIGFIGSDHLHRLTKTVANVDVTAVCDIVPGKAQKALDQQGLTATTYEDYHDLVNDPNVEVVVCTANNEAHYEIVMAALKAGKFTFCEKPLALDAKQCMDIIDSEKKLGRRMLQVGFMRHYAPEYVQMKKMIDDGVIGKPLMMDQRHYNQTQPEEYDSSRSIIETAIHEIDIDHWLVNDDYANIRVFSPKQTRHVQNAKIQDPQIVMIETKSGINIINEVFVRCQYGYDIKCDVIGEEGVLELPTVPQVATRLNAQYSTAILTDWKARFESAYDIEFRDFINHVSQNESPVGPSAWDGYIAAVTADAALKSLAEDGAKQDLDFPSTPAFYTESEKVSE	failed
MAEANTPHIAIMPSPGMGHLIPFVELAKRLVQHDCFTVTMIISGETSPSKAQRSVLNSLPSSIASVFLPPADLSDVPSTARIETRAMLTMTRSNPALRELFGSLSTKKSLPAVLVVDMFGADAFDVAVDFHVSPYIFYASNANVLSFFLHLPKLDKTVSCEFRYLTEPLKIPGCVPITGKDFLDTVQDRNDDAYKLLLHNTKRYKEAKGILVNSFVDLESNAIKALQEPAPDKPTVYPIGPLVNTSSSNVNLEDKFGCLSWLDNQPFGSVLYISFGSGGTLTCEQFNELAIGLAESGKRFIWVIRSPSEIVSSSYFNPHSETDPFSFLPIGFLDRTKEKGLVVPSWAPQVQILAHPSTCGFLTHCGWNSTLESIVNGVPLIAWPLFAEQKMNTLLLVEDVGAALRIHAGEDGIVRREEVVRVVKALMEGEEGKAIGNKVKELKEGVVRVLGDDGLSSKSFGEVLLKWKTHQRDINQETSH	failed
MAEATSALRKPVFTKVNELRPGTNGHSLNVKVVNTKMVMQRGGGRPMGPQSRQMRIAECLVGDETGIIIFTARNDQVDMMKEGSVVTLRNAKIDMYKGSMRLAVDRWGRVEVAEEPTDITVKDDNNLSLIEYELVSVET	failed
MAEDQTVLAIDIGGSHVKIGLSTDGEERKVESGKTMTGPEMVAAVTAMAKDMTYDVIAMGYPGPVVHNKPLREPVNLGEGWVGYDYEGAFGRPVRIVNDALMQAIGSYNGGRMLFLGLGTGLGAAMIVENVAQPMEIAHLPYRKGKTYEHYVSEAYREKKGNAKWQKRVQDVVERLSAALEPDEVVIGGGNVERLENLPPKCRRGDNAMAFEGGFRLWKNADLIV	not failed
MAEDYKLIDNEEKHRYEFQIDDKIAKIDYIKSNNGEIYLVHTEVPASLGGRGVGSQLAEKTLADIERQGLRLVPLCPFVAGYIHKHPEWKRIVMRGIHIK	failed
MAEEHRCETPEGHRLCVNNCGFFGSSATMNLCSNCYGDLCLKQQQQASMKSTVESSLSPVIAPVLENYAAELEIPTTKKTEEKKPIQIPTEQPSPPQRPNRCTVCRKRVGLTGFMCRCGTTFCGSHRYPEVHGCTFDFKSAGREEIAKANPLVIAAKLQKI	failed
MAEEQQNSSYSIGGNILPTPEEAATFQPQVVAEGGWDKCWEDGVTPWDQGRATPLILHLLDSSALPLGRTLVPGCGGGHDVVAMASPERFVVGLDISDKALNKANETYGSSPKAEYFSFVKEDVFTWRPNELFDLIFDYVFFCAIEPEMRPAWGKSMHELLKPDGELITLMYPMTDHEGGAPYKVALSSYEDVLVPVGFKAVSVEENPDSIPTRKGKEKLARWKKIN	failed
MAEEVRQELSALAAIFCGPNEWEMLSCSETDGAVFRIHTTAEGLVGEDVPLELAFHLPVGYPLCLPGISVTSEHLTRAQCVTAKEKLLGEARKLVSEPMVHELVLWIQQNLRLVLSQPETVSSHEKCTLPESATGDDGPWMTLLRLDHMRARTKYVKAVEKWASELRLTGRLMFMGKLILILLQGDRSNIKEYLILQKTSKVDVDSSGKKCKEKMISVLSETKVQTEHKRFLAFEVKEYSTLEELQKEFGAAGLGELFSECVLGLVK	failed
MAEIYRETEVTVARALRPPVPPKRASWIGTFFGVAADPRTYGALFYMLLSLLTGVFYFTWVVTGASLSVGMLILIIGVPLLVLFFGSVRVLSLVEGRVVETLLGVRMPRRPQHPGLQGGWLQRIGAMFTDARTWSTMLYFLLMLPLGILYFTVFCTLLSLSLGLAASPIAVLFDNVAVLTWDGVDVTSAWLTLPLCVVGVLLLFVTLHLARAFGTLHGMFAKQLLVKGGEAAA	failed
MAEKQYDFTHVPKRQGNSIKWGVLKEKELPMWIAEMDFKIAPEIMASMEEKLKVAAFGYESVPAEYYKAVADWEEIEHRARPKEDWCVFASGVVPAISAMVRQFTSPGDQILVQEPVYNMFYSVIEGNGRRVISSDLIYENSKYSVNWADLEEKLATPSVRMMVFCNPHNPIGYAWSEEEVKRIAELCAKHQVLLISDEIHGDLVLTDEDITPAFTVDWDAKNWVVSLISPSKTFNLAALHAACAIIPNPDLRARAEESFFLAGIGEPNLLAIPAAIAAYEEGHDWLRELKQVLRDNFAYAREFLAKEVPEVKVLDSNASYLAWVDISALGMNAEDFCKYLREKTGLIISAGNGYRGNGHEFVRINLACPKELVIDGMQRLKQGVLNLNN	not failed
MAEKRTLIAVIADEDTTTGLLLAGIGQITPETQEKNFFVYQEGKTTKEEITDKFNHFTEERDDIAILLINQHIAENIRARVDSFTNAFPAILEIPSKDHPYDPEKDSVLKRVRKLFGE	failed
MAELDIGQHCQVQHCRQRDFLPFVCDGCSGIFCLEHRSKDSHGCSEVNVVKERPKTDEHKSY	not failed
